Patent US20260242478A1 (published 2026)
Where no end group is shown, it is not given here.

B1: Phage-2964 (peptide)
peptide: PGPLCVPEWMCIGF
modifications: cysteine pairing not given here; also: peptide displayed as fusion to phage pIII
notes: Clonal phage of the peptide-180 optimisation library, tested as crude phage supernatant; not shown: bacteriophage pIII coat protein to which the peptide is fused for display
B2: Phage-2965 (peptide)
peptide: LFKMCQPSWMCDGF
modifications: cysteine pairing not given here; also: peptide displayed as fusion to phage pIII
notes: as for B1
B3: Phage-2963 (peptide)
peptide: NLPLCKPAWMCKWL
modifications: cysteine pairing not given here; also: peptide displayed as fusion to phage pIII
notes: as for B1
B4: Phage-2962 (peptide)
peptide: VQSLCVPYWMCTGF
modifications: cysteine pairing not given here; also: peptide displayed as fusion to phage pIII
notes: as for B1
B5: Phage-2934 (peptide)
peptide: EFNWCRPLWMCVGF
modifications: cysteine pairing not given here; also: peptide displayed as fusion to phage pIII
notes: Peptide-180 library clone, tested as clonal phage (peptide fused to pIII of the bacteriophage)
B6: Phage-2939 (peptide)
peptide: ISALCVPDWMCYGF
notes: Peptide-180 library clone, tested as clonal phage (peptide fused to pIII)
B7: Phage-2938 (peptide)
peptide: HVPKCVPQWMCIGF
notes: as for B6
B8: Phage-2947 (peptide)
peptide: GDHLCRPSWMCVGF
notes: as for B6
B9: Phage-2941 (peptide)
peptide: DVRMCKPSWMCIGL
notes: as for B6
B10: Phage-2946 (peptide)
peptide: EMRMCTPPWMCWGF
notes: as for B6
B11: Phage-2940 (peptide)
peptide: FDKICVPTWMCTGF
notes: as for B6
B12: Phage-2945 (peptide)
peptide: TVIKCIPAWMCDGF
notes: as for B6
B13: Phage-2937 (peptide)
peptide: VFPMCKPAWMCLGF
notes: as for B6
B14: Phage-2936 (peptide)
peptide: IDPMCKPLWMCAGF
modifications: cysteine pairing not given here; also: peptide displayed as fusion to phage pIII
notes: as for B6
B15: Phage-2943 (peptide)
peptide: EGIYCRPAWMCEGF
notes: as for B6
B16: Phage-2935 (peptide)
peptide: IHPVCKPDWMCAGF
modifications: cysteine pairing not given here; also: peptide fused to pIII
notes: as for B6
B17: Phage-2942 (peptide)
peptide: ELILCQPRWMCEGF
notes: as for B6
B18: Phage-2944 (peptide)
peptide: LTPMCKPSWMCDGF
notes: as for B6
B19: Phage-2948 (peptide)
peptide: FPHMCKPEWMCAGF
modifications: cysteine pairing not given here; also: peptide displayed as fusion to phage pIII
B20: Phage-2952 (peptide)
peptide: IMPKCEPIWMCAGF
modifications: cysteine pairing not given here; also: peptide displayed as fusion to phage pIII

Each binder was assayed against T1, PSMA Fab (biotinylated (site not stated)) (assay: phage ELISA, biotinylated anti-PSMA Fab on neutravidin plate, anti-M13 HRP detection).
T1 construct: Biotinylated PSMA Fab captured on neutravidin coated plates in the phage ELISA; also called Anti-PSMA Fab; 006 PSMA Fab

| Binder | Phage binding ELISA signal, Anti-PSMA Fab |
| --- | --- |
| B1 | 2.26 |
| B2 | 2.26 |
| B3 | 2.26 |
| B4 | 2.26 |

Each binder was assayed against T2, 006 PSMA Fab (biotinylated (site not stated)) (assay: clonal phage ELISA on biotinylated PSMA Fab captured on neutravidin, anti-M13-HRP detection;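 note: crude clonal phage supernatants added to wells preincubated with PSMA antigen in blocking buffer or with blocking buffer alone, brief binding period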).
T2 construct: also called Anti-PSMA Fab

| Binder | Phage binding ELISA signal, Anti-PSMA Fab |
| --- | --- |
| B5 | 2.29 |
| B6 | 2.28 |
| B7 | 2.29 |
| B8 | 2.28 |
| B9 | 2.28 |
| B10 | 2.28 |
| B11 | 2.28 |
| B12 | 2.28 |
| B13 | 2.29 |
| B14 | 2.29 |
| B15 | 2.28 |
| B16 | 2.29 |
| B17 | 2.28 |
| B18 | 2.28 |

Each binder was assayed against T2, 006 PSMA Fab (assay: clonal phage ELISA on captured PSMA Fab, wells pre-incubated with PSMA antigen as competitor).
Protocol: (§1) Clonal phage were harvested as crude supernatants and screened via standard ELISAs. […] Prior to the addition of clonal phage. wells were incubated with blocking buffer and PSMA antigen or blocking buffer alone. Without washing or aspirating, clonal phage supernatants were then added to the wells and incubated for a short time. Wells were then washed followed by detection of bound phage using a horse radish conjugated anti-M13 antibody.

| Binder | Phage binding ELISA signal, Anti-PSMA Fab in presence of PSMA |
| --- | --- |
| B5 | 0.157 |
| B6 | 0.696 |
| B7 | 0.202 |
| B8 | 0.0649 |
| B9 | 0.0754 |
| B10 | 0.112 |
| B11 | 0.107 |
| B12 | 0.09 |
| B13 | 0.319 |
| B14 | 0.145 |
| B15 | 0.0765 |
| B16 | 0.0823 |
| B17 | 0.0637 |
| B18 | 0.105 |

These binders were tested against T1, PSMA Fab (assay: phage ELISA, captured anti-PSMA Fab pre-incubated with PSMA antigen as competitor, anti-M13 HRP detection).
Protocol: as §1

| Binder | Phage binding ELISA signal, Anti-PSMA Fab in presence of PSMA antigen |
| --- | --- |
| B1 | 0.114 |
| B2 | 0.0804 |
| B3 | 0.125 |
| B4 | 0.102 |

What follows are binders tested against T3, PSMA Fab (006 PSMA Fab) (biotinylated (site not stated)) (assay: clonal phage ELISA on biotinylated PSMA Fab captured on neutravidin, anti-M13 HRP detection, no PSMA antigen).
T3 construct: also called Anti-PSMA Fab

| Binder | Phage binding ELISA signal, Anti-PSMA Fab |
| --- | --- |
| WEQRCVPEWMCVGF [Phage-2960] | 2.26 |
| EQPLCTPQWMCWGF [Phage-2958] | 2.27 |
| ENIMCEPMWMCIGF [Phage-2951] | 2.27 |
| PEFVCKPSWMCQGF [Phage-2959] | 2.26 |
| WDHLCKPDWMCLGF [Phage-2949] | 2.28 |
| TLMRCEPSWMCQGF [Phage-2954] | 2.27 |
| B19 | 2.28 |
| SSPICKPMWMCTGF [Phage-2950] | 2.28 |
| B20 | 2.27 |
| ADPVCRPQWMCEGF [Phage-2961] | 2.26 |
| TTAYCIPPWMCSGF [Phage-2955] | 2.27 |
| YLQFCKPVWMCTGF [Phage-2956] | 2.27 |
| AYEMCIPAWMCEGF [Phage-2957] | 2.27 |
| VDIQCKPLWMCIGM [Phage-2953] | 2.27 |

What follows are binders tested against T3, PSMA Fab (006 PSMA Fab) (assay: clonal phage ELISA on biotinylated PSMA Fab captured on neutravidin, anti-M13 HRP detection, competitor PSMA antigen).
Protocol: as §1

| Binder | Phage binding ELISA signal, Anti-PSMA Fab with PSMA antigen |
| --- | --- |
| WEQRCVPEWMCVGF [Phage-2960] | 0.0987 |
| EQPLCTPQWMCWGF [Phage-2958] | 0.0972 |
| ENIMCEPMWMCIGF [Phage-2951] | 0.0839 |
| PEFVCKPSWMCQGF [Phage-2959] | 0.0681 |
| WDHLCKPDWMCLGF [Phage-2949] | 0.0766 |
| TLMRCEPSWMCQGF [Phage-2954] | 0.0698 |
| B19 | 0.0876 |
| SSPICKPMWMCTGF [Phage-2950] | 0.0918 |
| B20 | 0.0746 |
| ADPVCRPQWMCEGF [Phage-2961] | 0.11 |
| TTAYCIPPWMCSGF [Phage-2955] | 0.15 |
| YLQFCKPVWMCTGF [Phage-2956] | 0.15 |
| AYEMCIPAWMCEGF [Phage-2957] | 0.0905 |
| VDIQCKPLWMCIGM [Phage-2953] | 0.0643 |

The binders below were run against T4, PSMA Fab (006 PSMA Fab) (assay: phage ELISA; clonal phage supernatant on biotinylated PSMA Fab captured on neutravidin plate, anti-M13 HRP detection).
T4 construct: also called Anti-PSMA Fab; anti-PSMA Fab
Protocol: as §1

| Binder | Phage binding ELISA signal, Anti-PSMA Fab |
| --- | --- |
| IKPFCVPEWMCVAL (tested as crude phage supernatant) [Phage-2927] | 2.31 |
| TQALCVPSWMCDGF (tested as crude phage supernatant) [Phage-2930] | 2.3 |
| MHMLCRPAWMCSGF (tested as crude phage supernatant) [Phage-2932] | 2.29 |
| VERACVPVWMCEGF (tested as crude phage supernatant) [Phage-2933] | 2.29 |
| NIPHCVPAWMCIGF (tested as crude phage supernatant) [Phage-2929] | 2.31 |
| VEQMCKPEWMCKGF (tested as crude phage supernatant) [Phage-2931] | 2.3 |
| IVPACKPVWMCDGF (tested as crude phage supernatant) [Phage-2928] | 2.31 |

Each binder was assayed against T4, PSMA Fab (006 PSMA Fab) (assay: phage ELISA; clonal phage on plate-captured PSMA Fab pre-incubated with PSMA antigen as competitor, anti-M13 HRP detection).
Protocol: as §1

| Binder | Phage binding ELISA signal, Anti-PSMA Fab with PSMA antigen |
| --- | --- |
| IKPFCVPEWMCVAL (tested as crude phage supernatant) [Phage-2927] | 0.121 |
| TQALCVPSWMCDGF (tested as crude phage supernatant) [Phage-2930] | 0.0747 |
| MHMLCRPAWMCSGF (tested as crude phage supernatant) [Phage-2932] | 0.21 |
| VERACVPVWMCEGF (tested as crude phage supernatant) [Phage-2933] | 0.11 |
| NIPHCVPAWMCIGF (tested as crude phage supernatant) [Phage-2929] | 0.109 |
| VEQMCKPEWMCKGF (tested as crude phage supernatant) [Phage-2931] | 0.109 |
| IVPACKPVWMCDGF (tested as crude phage supernatant) [Phage-2928] | 0.11 |
